In the supplement of paper PMC9112550, “Optimization of the antimicrobial peptide Bac7 by deep mutational scanning” (BMC Biology, 2022):

What follows are sequences tested on Escherichia coli TOP10 (assay: shrunken log2 fold change of peptide-encoding DNA abundance (4.5 h post-induction vs induction); higher = less antimicrobial activity (less host growth inhibition)). Details: time post-induction: 4.5 h; library: site-saturation at positions 5, 18, 19, 20.
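Note: peptides expressed intracellularly from a pBAD plasmid library in pooled LB shake-flask culture, induced with 0.3% L-arabinose, DNA abundance read by NGS, three biological replicates, DESeq2 with apeglm shrinkage.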

Sequence | shrunken log2 fold change
RRIRYRPPRLPRPRPRPEDWPRP | -0.252
RRIRRRPPRLPRPRPRPVESPRP | 0.126
RRIRGRPPRLPRPRPRPEREPRP | 1.1
RRIRKRPPRLPRPRPRPHTPPRP | 0.0819
RRIRGRPPRLPRPRPRPISAPRP | 0.363
RRIRSRPPRLPRPRPRPSIQPRP | -0.497
RRIRRRPPRLPRPRPRPQNDPRP | -0.212
RRIRRRPPRLPRPRPRPFITPRP | -0.257
RRIRKRPPRLPRPRPRPTRMPRP | 0.651
RRIRLRPPRLPRPRPRPESGPRP | 0.0315
RRIRLRPPRLPRPRPRPINSPRP | 0.0605
RRIRQRPPRLPRPRPRPEGPPRP | 0.172
RRIRSRPPRLPRPRPRPINNPRP | -0.647
RRIRWRPPRLPRPRPRPFGWPRP | 0.118
RRIRQRPPRLPRPRPRPFAVPRP | -0.99
RRIRRRPPRLPRPRPRPHRRPRP | -0.000685
RRIRPRPPRLPRPRPRPECDPRP | 0.392
RRIRARPPRLPRPRPRPMNSPRP | -0.279
RRIRPRPPRLPRPRPRPSGDPRP | 0.14
RRIRHRPPRLPRPRPRPIDHPRP | -0.267
RRIRFRPPRLPRPRPRPEESPRP | 0.195
RRIRARPPRLPRPRPRPGGCPRP | 0.81
RRIRYRPPRLPRPRPRPSRLPRP | -0.114
RRIRMRPPRLPRPRPRPSSIPRP | -0.0701
RRIRCRPPRLPRPRPRPCSPPRP | -0.241

Sequence | shrunken log2 fold change
RRIRKRPPRLPRPRPRPQWYPRP | -0.145
RRIRCRPPRLPRPRPRPDPDPRP | -0.141
RRIRFRPPRLPRPRPRPYADPRP | -0.0222
RRIRQRPPRLPRPRPRPNIWPRP | -0.0842
RRIRKRPPRLPRPRPRPVLYPRP | -0.0796
RRIRHRPPRLPRPRPRPWSKPRP | -0.301
RRIRSRPPRLPRPRPRPERHPRP | 0.0386
RRIRMRPPRLPRPRPRPMFTPRP | 0.0379
RRIRERPPRLPRPRPRPIQCPRP | 0.0885
RRIRERPPRLPRPRPRPWCLPRP | -0.746
RRIRARPPRLPRPRPRPSPNPRP | 0.0681
RRIRWRPPRLPRPRPRPHCEPRP | -0.262
RRIRQRPPRLPRPRPRPAIHPRP | 0.135
RRIRQRPPRLPRPRPRPSIDPRP | -0.607
RRIRGRPPRLPRPRPRPSPKPRP | 0.619
RRIRQRPPRLPRPRPRPKCAPRP | 0.16
RRIRSRPPRLPRPRPRPRGLPRP | 0.461
RRIRPRPPRLPRPRPRPTNIPRP | -0.687
RRIRIRPPRLPRPRPRPPWSPRP | 0.219
RRIRSRPPRLPRPRPRPPCFPRP | -0.0133
RRIRHRPPRLPRPRPRPQMMPRP | -0.279
RRIRIRPPRLPRPRPRPAMEPRP | 0.0199
RRIRNRPPRLPRPRPRPYIRPRP | 0.00719
RRIRERPPRLPRPRPRPKYLPRP | -0.77
RRIRSRPPRLPRPRPRPRPCPRP | 0.137

Sequence | shrunken log2 fold change
RRIRYRPPRLPRPRPRPHSRPRP | -0.103
RRIRSRPPRLPRPRPRPSPGPRP | 0.312
RRIRYRPPRLPRPRPRPNPKPRP | -0.0294
RRIRRRPPRLPRPRPRPDQDPRP | -0.0033
RRIRLRPPRLPRPRPRPPWNPRP | 0.939
RRIRQRPPRLPRPRPRPEGIPRP | 0.0201
RRIRPRPPRLPRPRPRPGLKPRP | 0.211
RRIRYRPPRLPRPRPRPADVPRP | -0.127
RRIRHRPPRLPRPRPRPCKMPRP | -0.134
RRIRNRPPRLPRPRPRPPDEPRP | 1.28
RRIRMRPPRLPRPRPRPIIWPRP | -0.0321
RRIRFRPPRLPRPRPRPMSWPRP | 0.131
RRIRTRPPRLPRPRPRPGTTPRP | -0.342
RRIRVRPPRLPRPRPRPCRFPRP | -0.464
RRIRKRPPRLPRPRPRPINIPRP | -0.0728
RRIRDRPPRLPRPRPRPVMWPRP | 0.783
RRIRARPPRLPRPRPRPIARPRP | 1.01
RRIRWRPPRLPRPRPRPACTPRP | 0.334
RRIRFRPPRLPRPRPRPWGFPRP | 0.0091
RRIRNRPPRLPRPRPRPYPAPRP | 0.0741
RRIRHRPPRLPRPRPRPGWPPRP | 0.424
RRIRYRPPRLPRPRPRPPWHPRP | -0.507
RRIRYRPPRLPRPRPRPERWPRP | 0.44
RRIRKRPPRLPRPRPRPQVNPRP | -0.124
RRIRWRPPRLPRPRPRPVFHPRP | 0.379

Sequence | shrunken log2 fold change
RRIRPRPPRLPRPRPRPVRAPRP | 0.622
RRIRQRPPRLPRPRPRPNHEPRP | -0.102
RRIRDRPPRLPRPRPRPATFPRP | 0.222
RRIRLRPPRLPRPRPRPQPHPRP | 0.077
RRIRHRPPRLPRPRPRPTCCPRP | -0.125
RRIRVRPPRLPRPRPRPSCSPRP | -0.338
RRIRNRPPRLPRPRPRPLRAPRP | 0.672
RRIRLRPPRLPRPRPRPFECPRP | -0.345
RRIRWRPPRLPRPRPRPEARPRP | 0.106
RRIRVRPPRLPRPRPRPETVPRP | -0.103
RRIRRRPPRLPRPRPRPDAMPRP | 0.336
RRIRQRPPRLPRPRPRPECSPRP | -0.0561
RRIRMRPPRLPRPRPRPSLEPRP | 0.895
RRIRIRPPRLPRPRPRPNSEPRP | -0.686
RRIRLRPPRLPRPRPRPNWYPRP | -0.771
RRIRMRPPRLPRPRPRPKSVPRP | 0.0926
RRIRIRPPRLPRPRPRPFLNPRP | -0.429
RRIRDRPPRLPRPRPRPNMAPRP | -0.144
RRIRYRPPRLPRPRPRPCNIPRP | -0.463
RRIRVRPPRLPRPRPRPRLNPRP | -0.00875
RRIRSRPPRLPRPRPRPWMCPRP | -0.391
RRIRDRPPRLPRPRPRPMYHPRP | 0.0212
RRIRTRPPRLPRPRPRPAYCPRP | -0.0119
RRIRGRPPRLPRPRPRPWQGPRP | 0.015
RRIRKRPPRLPRPRPRPNNDPRP | 0.0263

Sequence | shrunken log2 fold change
RRIRTRPPRLPRPRPRPGSHPRP | -0.336
RRIRPRPPRLPRPRPRPACTPRP | 0.163
RRIRNRPPRLPRPRPRPYVIPRP | -0.177
RRIRYRPPRLPRPRPRPQCAPRP | -0.247
RRIRFRPPRLPRPRPRPMTLPRP | -0.107
RRIRRRPPRLPRPRPRPGNDPRP | -0.0382
RRIRKRPPRLPRPRPRPTMFPRP | 0.165
RRIRMRPPRLPRPRPRPDTQPRP | 0.393
RRIRIRPPRLPRPRPRPMPNPRP | -0.0781
RRIRKRPPRLPRPRPRPPTYPRP | 0.0129
RRIRSRPPRLPRPRPRPQGYPRP | -0.139
RRIRLRPPRLPRPRPRPNSVPRP | -0.11
RRIRGRPPRLPRPRPRPAYRPRP | 0.181
RRIRSRPPRLPRPRPRPAGKPRP | -0.284
RRIRWRPPRLPRPRPRPARTPRP | 0.705
RRIRARPPRLPRPRPRPGPEPRP | 1.61
RRIRHRPPRLPRPRPRPWDCPRP | -0.00608
RRIRQRPPRLPRPRPRPQQAPRP | -0.0512
RRIRVRPPRLPRPRPRPRVNPRP | -0.159
RRIRHRPPRLPRPRPRPIARPRP | 0.116
RRIRYRPPRLPRPRPRPEQHPRP | -0.0567
RRIRKRPPRLPRPRPRPYLTPRP | -0.413
RRIRVRPPRLPRPRPRPTQLPRP | 0.504
RRIRCRPPRLPRPRPRPKMLPRP | -0.0357
RRIRWRPPRLPRPRPRPYCSPRP | -0.0518

Sequence | shrunken log2 fold change
RRIRVRPPRLPRPRPRPAAWPRP | 0.136
RRIRDRPPRLPRPRPRPNNAPRP | -0.204
RRIRERPPRLPRPRPRPLGFPRP | -0.118
RRIRRRPPRLPRPRPRPLEDPRP | -0.0161
RRIRPRPPRLPRPRPRPSHLPRP | -0.168
RRIRLRPPRLPRPRPRPLGCPRP | 0.0856
RRIRVRPPRLPRPRPRPQDQPRP | 0.225
RRIRARPPRLPRPRPRPWQFPRP | 0.456
RRIRDRPPRLPRPRPRPMYLPRP | -0.239
RRIRPRPPRLPRPRPRPSYHPRP | -0.641
RRIRARPPRLPRPRPRPMDDPRP | 0.197
RRIRLRPPRLPRPRPRPDLQPRP | -0.0184
RRIRWRPPRLPRPRPRPQDYPRP | -0.406
RRIRHRPPRLPRPRPRPNDQPRP | -0.169
RRIRDRPPRLPRPRPRPIPKPRP | -0.0116
RRIRMRPPRLPRPRPRPHINPRP | -0.339
RRIRPRPPRLPRPRPRPIFHPRP | -0.0968
RRIRCRPPRLPRPRPRPATFPRP | -0.331
RRIRHRPPRLPRPRPRPTTYPRP | -0.9
RRIRRRPPRLPRPRPRPPAIPRP | 1.03
RRIRNRPPRLPRPRPRPIADPRP | 0.0461
RRIRWRPPRLPRPRPRPSALPRP | 0.678
RRIRDRPPRLPRPRPRPLQCPRP | 0.0793
RRIRKRPPRLPRPRPRPSSNPRP | -0.0818
RRIRERPPRLPRPRPRPMEIPRP | -0.221
